IntAct's records for PubMed 9024666

B1: Apoptosis regulator ced-9 (Caenorhabditis elegans), P41958 (parent)
chain: MTRCTADNSLTNPAYRRRTMATGEMKEFLGIKGTEPTDFGINSDAQDLPSPSRQASTRRMSIGESIDGKINDWEEPRLDIEGFVVDYFTHRIRQNGMEWFGAPGLPCGVQPEHEMMRVMGTIFEKKHAENFETFCEQLLAVPRISFSLYQDVVRTVGNAQTDQCPMSYGRLIGLISFGGFVAAKMMESVELQGQVRNLFVYTSLFIKTRIRNNWKEHNRSWDDFMTLGKQMKEDYERAEAEKVGRRKQNRRWSMIGAGVTAGAIGIVGVVVCGRMMFSLK
partner: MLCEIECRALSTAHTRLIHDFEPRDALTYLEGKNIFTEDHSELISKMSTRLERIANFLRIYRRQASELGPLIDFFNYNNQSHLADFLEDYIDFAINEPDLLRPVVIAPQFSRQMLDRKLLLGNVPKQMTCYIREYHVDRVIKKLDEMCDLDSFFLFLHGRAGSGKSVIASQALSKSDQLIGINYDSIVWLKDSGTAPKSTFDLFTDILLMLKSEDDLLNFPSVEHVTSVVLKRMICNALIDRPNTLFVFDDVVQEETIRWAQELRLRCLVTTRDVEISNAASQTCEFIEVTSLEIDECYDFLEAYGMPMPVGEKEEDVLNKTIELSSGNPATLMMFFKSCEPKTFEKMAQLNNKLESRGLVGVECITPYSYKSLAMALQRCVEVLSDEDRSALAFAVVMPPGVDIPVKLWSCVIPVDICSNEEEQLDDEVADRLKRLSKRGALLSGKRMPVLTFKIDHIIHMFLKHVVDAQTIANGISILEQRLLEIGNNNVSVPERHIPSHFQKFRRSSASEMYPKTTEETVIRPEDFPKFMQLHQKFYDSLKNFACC

Variants of: B1
Settings: with ced4_caeel ced-4, P30429

Row | Variant | effect of a mutation on the interaction
1 | Y149N | decreasing interaction
